The values below come from PMC7793260, “MreC and MreD balance the interaction between the elongasome proteins PBP2 and RodA” (PLoS Genetics, 2020).

For series [1], the target named is T1, mKO-PBP2^S330C (E. coli, UniProt P0AD65 1-633, S330C).
T1 construct: made from pWA004 by mutagenesis PCR; source: E. coli LMC500, expressed from plasmid (15 uM IPTG), in fixed cells; not shown: mKO, N-terminal, kept
T1 sequence (looked up): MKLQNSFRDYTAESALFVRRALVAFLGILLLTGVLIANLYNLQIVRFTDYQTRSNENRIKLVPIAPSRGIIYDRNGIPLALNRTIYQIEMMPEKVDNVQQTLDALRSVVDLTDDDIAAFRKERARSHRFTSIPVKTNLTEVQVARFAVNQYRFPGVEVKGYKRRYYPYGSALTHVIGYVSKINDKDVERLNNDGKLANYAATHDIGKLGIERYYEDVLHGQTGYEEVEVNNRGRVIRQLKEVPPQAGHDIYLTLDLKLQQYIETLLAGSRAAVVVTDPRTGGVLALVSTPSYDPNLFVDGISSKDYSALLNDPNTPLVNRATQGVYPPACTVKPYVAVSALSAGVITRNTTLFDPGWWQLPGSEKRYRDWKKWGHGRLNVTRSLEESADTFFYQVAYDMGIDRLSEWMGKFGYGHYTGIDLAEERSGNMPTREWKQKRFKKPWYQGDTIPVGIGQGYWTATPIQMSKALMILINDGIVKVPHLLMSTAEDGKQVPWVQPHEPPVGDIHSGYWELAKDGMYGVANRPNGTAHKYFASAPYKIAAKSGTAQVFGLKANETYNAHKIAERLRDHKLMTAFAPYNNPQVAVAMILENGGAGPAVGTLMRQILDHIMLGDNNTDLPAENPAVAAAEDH
As to the kind of experiment: FRET or BRET; as the two-plasmid FRET, cells treated with mecillinam (2 mg/L) for two mass doublings. Particulars: partners not purified. On the technique in general: Bioluminescence resonance energy transfer reports proximity on the nanometre scale.

Another series concerns the target T2, mKO-PBP2^L61R (E. coli, UniProt P0AD65 1-633, L61R).
T2 construct: PBP2 of E. coli with L61R (hyperactive variant); made from pWA004 by mutagenesis PCR; also called hyperactive PBP2^L61R; source: E. coli LMC500, expressed from plasmid (15 uM IPTG), in fixed cells; not shown: mKO, N-terminal, kept
T2 sequence (looked up): T1 sequence (looked up) with L61R, C330S
As to the kind of experiment: FRET or BRET; two-plasmid spectral FRET in E. coli LMC500 cells; mCherry fusion as acceptor, mKO fusion as donor; Gb4 medium, steady state at 28 C, 15 uM IPTG for two mass doublings, FAGA-fixed; acceptor FRET efficiency (EfA) by spectral unmixing. Particulars: partners not purified.

Series [2] deals with the molecule itself. The description is as above.
Series [3] concerns the target T3, PBP2 (wild type), fused to mKO or to mCherry (E. coli, UniProt P0AD65 1-633).
T3 construct: PBP2, peptidoglycan transpeptidase of the E. coli elongasome, wild type; mKO-PBP2 in all others; also called mKO-PBP2^WT; mKO-PBP2; source: E. coli LMC500, expressed from plasmid (15 uM IPTG), in fixed cells; not shown: mKO (donor construct, pWA004) or mCherry (acceptor construct), N-terminal, kept
T3 sequence (looked up): T1 sequence (looked up) with C330S
The description is as above. As to conditions: partners not purified.

The target in series [4] is T1, mKO-PBP2^S330C. Described as above. As to conditions: partners not purified.

Positions count from the first letter of the chain named.

B1: RodA (wild type), fused to mCherry or to mKO (enzyme, E. coli, UniProt P0ABG7 1-370, looked up)
chain: MTDNPNKKTFWDKVHLDPTMLLILLALLVYSALVIWSASGQDIGMMERKIGQIAMGLVIMVVMAQIPPRVYEGWAPYLYIICIILLVAVDAFGAISKGAQRWLDLGIVRFQPSEIAKIAVPLMVARFINRDVCPPSLKNTGIALVLIFMPTLLVAAQPDLGTSILVALSGLFVLFLSGLSWRLIGVAVVLVAAFIPILWFFLMHDYQRQRVMMLLDPESDPLGAGYHIIQSKIAIGSGGLRGKGWLHGTQSQLEFLPERHTDFIFAVLAEELGLVGILILLALYILLIMRGLWIAARAQTTFGRVMAGGLMLILFVYVFVNIGMVSGILPVVGVPLPLVSYGGSALIVLMAGFGIVMSIHTHRKMLSKSV
notes: RodA, peptidoglycan glycosyltransferase of the E. coli elongasome; wild-type rodA gene; mCh-RodA in all others; also called mCh-RodA; mKO-RodA; source: E. coli LMC500, expressed from plasmid (15 uM IPTG), in fixed cells; not shown: mCherry (acceptor construct, pSAV047-RodA) or mKO (donor construct, pXL56), N-terminal, kept
In the case of B1, the “EfA (acceptor FRET efficiency)” value with mKO-PBP2^S330C [1] worked out at 6.6%; with mKO-PBP2^L61R it was 10.8%; in series [2], 5.5%; in series [3], 12.7%; with mKO-PBP2^S330C [4], 10.2%.
